Positions of bridges follow the written chain, without caps; N, C: chain ends. Non-standard residues stand in square brackets, D forms with d. No end group written: not given here. Lys(5-OH) = 5-hydroxyl lysine
Target: MAGUK GK domain
Assay: ITC

Question: Which Kd does the source give for ARRDEYL[Lys(5-OH)]AIQ-NH2 (lactam 4-8) here?
Answer: 5.9 µM

Reference: patent US20170152286A1
